Consider one molecule from article PMC10400941 (Proceedings of the National Academy of Sciences of the …, 2023).

The series “SEC-MALS” deals with the molecule itself. The series can be described thus: SEC-MALS. In general terms: In gel filtration, larger molecules generally elute earlier.
A further series has as its target T1, RpnAL (E. coli, UniProt P31667 1-292).
T1 sequence (looked up): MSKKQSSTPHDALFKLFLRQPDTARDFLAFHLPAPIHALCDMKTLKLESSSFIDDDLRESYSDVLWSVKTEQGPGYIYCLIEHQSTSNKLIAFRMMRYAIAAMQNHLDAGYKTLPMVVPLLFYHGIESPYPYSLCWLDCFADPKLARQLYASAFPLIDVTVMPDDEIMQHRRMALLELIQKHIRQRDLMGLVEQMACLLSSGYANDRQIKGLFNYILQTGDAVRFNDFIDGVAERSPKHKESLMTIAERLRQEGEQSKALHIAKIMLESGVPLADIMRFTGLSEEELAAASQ
The series can be described thus: SEC-MALS.

As for MTIAERLRQEGEQSKALHIAKIMLESGVPLADIMRFTGLSEEELAAASQ (domain or fragment, E. coli, UniProt P31667 244-292, looked up) [RpnAS], the stoichiometry N (as a rule, the number of molecules, sites or subunits per partner or assembly) is 2 in the series “SEC-MALS” and 1 RpnAS per RpnAL (2:2) with RpnAL.
